In patent publication US20140072563A1 (Regeneron, published 2014):
Changes are numbered by the printed parent chain. Numbers in names are those of the source.

T1: hErbB3.mFc (soluble dimeric human ErbB3 extracellular domain fused to mouse Fc) (human)
T1 construct: called dimeric
T1 chain: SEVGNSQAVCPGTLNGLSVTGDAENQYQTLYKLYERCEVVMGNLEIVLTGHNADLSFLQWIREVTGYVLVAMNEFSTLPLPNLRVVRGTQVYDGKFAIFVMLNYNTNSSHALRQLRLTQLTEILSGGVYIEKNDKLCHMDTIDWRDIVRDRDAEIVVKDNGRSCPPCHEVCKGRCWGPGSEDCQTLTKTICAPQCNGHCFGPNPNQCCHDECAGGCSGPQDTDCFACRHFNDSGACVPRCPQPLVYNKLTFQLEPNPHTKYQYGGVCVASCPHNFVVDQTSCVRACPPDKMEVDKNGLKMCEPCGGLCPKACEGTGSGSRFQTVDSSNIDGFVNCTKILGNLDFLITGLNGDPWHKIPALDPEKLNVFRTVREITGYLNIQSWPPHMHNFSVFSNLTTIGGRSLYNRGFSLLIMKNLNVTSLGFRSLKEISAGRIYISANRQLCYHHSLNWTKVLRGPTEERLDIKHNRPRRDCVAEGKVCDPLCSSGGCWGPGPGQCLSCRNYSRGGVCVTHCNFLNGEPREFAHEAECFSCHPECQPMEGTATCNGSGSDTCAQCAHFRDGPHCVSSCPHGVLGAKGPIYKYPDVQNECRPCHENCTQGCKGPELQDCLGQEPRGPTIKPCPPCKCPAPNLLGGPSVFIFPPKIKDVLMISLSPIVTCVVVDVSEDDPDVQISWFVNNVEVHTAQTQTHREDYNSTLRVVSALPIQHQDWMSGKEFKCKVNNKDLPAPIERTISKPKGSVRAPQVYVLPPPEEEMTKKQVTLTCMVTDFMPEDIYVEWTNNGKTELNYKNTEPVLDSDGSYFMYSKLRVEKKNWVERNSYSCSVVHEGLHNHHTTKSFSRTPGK

B1: H4H2084P (antibody, V domains shown)
VH: QVQLVESGGGVVQSGKSLRLSCVASGFTFSNYGMHWVRQTPGKGLEWVARIWFDGTNKYYTDSVKGRFTLSRDSSKNTLYLQMNSLRAEDTAVYFCAREESLELDHYVMDVWGQGTTVTVSS
VL: AIQMTQSPSSLSASVGDRVTITCRASQDIRDDLGWFQQKPGKAPNLLIYAASSLQSGVPSRFSGSGSGTDFTLTISSLQPEDFATYYCLQDYNYPLTFGGGTKVEIKR
notes: Fully human, human IgG4 Fc (H4H prefix)
B2: H4H2092P (antibody, V domains shown)
VH: EVQLVESGGGVVRPGGSLRLSCAASGFTFEDYGMNWVRQVPGKGLEWVSGTNWNGGITGYTGSVKGRFTISRDNAKNSLYLQMNSLRAEDTALYHCARDSGDQDAFDIWGQGTMVTVSS
VL: DIQLTQSPSFLSASVGDRVTITCWASQDISSYLAWYQQKPGKAPKLLIYAASTFQSGVPSRFSGSGSGTEFTLTISNLQPEDFATYYCQQLDSYPLSFGGGTKVEIKR
notes: as for B1
B3: H4H2094P (antibody, V domains shown)
VH: EVQLVESGGGLVQPGGSLRLSCAASGFTFSSYDMHWVRQATGKGLEWVSAIGPAGDTYYPVSAMGRFTISRDDAKNSLYLQMNSLRAGDTAVYYCAREGVTIRPDDYFGLDVWGQGTTVTVSA
VL: B2 VL with D28G, S31D, Q38K, K45Q, S52T, F54L, N77S, D92N, S93T, S97T
notes: as for B1
B4: H4H2098P (antibody, V domains shown)
VH: QVQLVESGGGVVQPGRSLRLSCAASGFTFSSFGMHWVRQAPGKGLEWVAVIWYVEINKYHADSVKGRFTISRDDSKNTVYLQMNSLRAEDTAVYYCARDWNDGDYGMDVWGQGTTVTVSS
VL: DIQLTQSPSFLSASVGDRVTITCWASQGISSFLAWYQQKAGKAPRLLIYAASTLQTGVPSRFSGSGSGTEFTLTISSLQPGDFATYHCQQLNSYPYTFGQGTKLEIKR
notes: as for B1
B5: H4H2102P (antibody, V domains shown)
VH: EVQLVESGGGLVQPGGSLRLSCAASGFTFSNYDIHWVRQATGKGLEWVSAIGPAGDTYYSDSVKGRFTISREDAKNSLYLQMSSLRAGDTAVYYCASEGIAVRPDDYYGMDVWGQGTTVTVSA
VL: B2 VL with S30T, Q38K, F54L, N77S, T85A, D92N, S97T, E105D
notes: as for B1
B6: H4H2108P (antibody, V domains shown)
VH: EVQLLESGGDLVQPGGSLRLSCATSGFSFSSDAMNWVRQAPGKGLEWVSGISGSGGNTYYADSVKGRFTISRDISKSTLSLQMNSLRAEDTAVYYCAKEGTNMVRGVVMEDNGMDVWGQGTTVTVSA
VL: DIQMTQSPSSVSASVGDRVTITCRASQGISDYLAWYQQKPGKAPKLLIYAASSLQSGVPSRFSGRGSGTDFTLTISTLQPEDFATYYCQQANSFPLTFGGGTKVDIKR
notes: as for B1
B7: H4H2111P (antibody, V domains shown)
VH: QVQLVESGGGVVQPGRSLRLSCAASGFTFNNYGMHWVRQAPGKGLAWVAVMWYSESHKYYADSVKGRFTISRDNSKNTLYLEMNSLRVEDTAIYYCARDLGDPDAFDIWGQGTMVTVSS
VL: B2 VL with D28G, A50G, F54L, N77S, D92N, S97T
notes: as for B1
B8: H4H2114P (antibody, V domains shown)
VH: QVQLVESGGGVVQPGRSLRLSCAASGFTFSSYGMHWVRQAPGKGLEWVAGMSYDGSSKYYEDSVKGRFTISRDNSKNTLNLQMNSLRVEDTAVYYCAKERDYVEYVDSYYGMDVWGQGTTVTVSA
VL: B1 VL with D28G, D31N, F36Y, N45K, L46V, D70V
notes: as for B1
B9: H4H2132P (antibody, V domains shown)
VH: EVQLVESGGGVVRPGGSLRLSCAASGFTFDDYGMSWVRQFPGKGLEWVSSIDGNGGNTGYSDSVKGRFTISRDNAKNSLHLQMNSLRAEDTALYHCARDPDYDSVWGNYRPFDYWGQGTLVTVSS
VL: DIVMTQSPDSLAVSLGERATINCKSSQSVLSSSNDNNYLAWFQQKPGQPPNLLIYWASTRDSGVPDRFSASGSGTDFTLAISSLQAEDVAVYYCHQYYSSPPTFGQGTKVEIKR
notes: as for B1
B10: H4H2138P (antibody, V domains shown)
VH: QVQLQESGPGLVKPSQTLSLTCTVSGGSINSGGYYWSWIRQHPGKGLEWIGYISYSGNTNYNPSLKSRVTISVDTSKNQFSLTLTSVTAADTAVYYCARDSDVDTGLVDGFDVWGQGTMVTVSS
VL: DIVMTQSPSSVSASVGDRVTITCRASQGVSSWLAWYQQKPGKAPKLLIYTTSSLQSGVPSRFSGSGSGTDFTLTISSLQPEDFATYYCQQSNSFPFTFGPGTKVEIK
notes: as for B1
B11: H4H2140P (antibody, V domains shown)
VH: EVQLVESGGGLVQPGGSLRLSCAASGFSVSYYDMHWVRQVTGKGLEWVSAIGPAGDTYYPGSVKGRFTISREDATNSLYLQIHSLGAGDTAVYYCAREGAIAARPDDYYGMDVWGQGTTVTVSS
VL: B2 VL with F54L, N77S, D92N, S97T
notes: as for B1
B12: H4H2143P (antibody, V domains shown)
VH: EVQLVESGGGLVQPGRSLRLSCAASGFTFGDYAMHWVRQAPGKGLEWVSGINLNSGTIGYADSVKGRFTISRDNAKNSLYLQMNSLRAEDTAFYYCAKDIDGYYHYAMDVWGQGTTVTVSS
VL: B2 VL with I2V, Q3V, L4M, D28G, A50D, F54L, Q55E, L91V, D92N, S97T
notes: as for B1
B13: H4H2146P (antibody, V domains shown)
VH: QVQLVESGGGVVQPGRSLRLSCAASGFTFINYGIHWVRQGPGKGLEWVAVIWYDGSNEWYADSVKGRFTISRDNSKNTVYLEMNKLRAEDTAVYYCAREEEDYGMDVWGQGTTVTVSS
VL: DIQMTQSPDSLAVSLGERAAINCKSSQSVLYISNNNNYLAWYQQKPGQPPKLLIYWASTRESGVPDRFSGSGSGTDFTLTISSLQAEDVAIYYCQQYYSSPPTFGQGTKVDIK
notes: as for B1
B14: H4H2147P (antibody, V domains shown)
VH: QVQLVESGGGLVKPGGSLRLSCAASGFTFSDFNMGWIRQAPGKGLEWVSHISGSGNVIYYADSVKGRFAISRDNGKNSLYLQVNSLRAEDTAVYYCARDIGDSDAFDIWGQGTMVTVSS
VL: B2 VL with A50G, F54L, Q55E, N77S, F83V, D92N, S93T, S97T
notes: as for B1

Molecular target: T1, hErbB3.mFc (soluble dimeric human ErbB3 …)
Assay: SPR (Biacore), 25 C, mAb capture format
Experimental: (§1) (Tables 2-4). Measurements were conducted on a Biacore 2000 or T100 instrument. […] Kinetic association (kₐ) and dissociation (kd) rate constants were determined by processing and fitting the data to a 1:1 binding model using Scrubber 2.0 curve fitting software.

Binder | Kd [pM] | T½ [h] | koff [s⁻¹] | kon [M⁻¹ s⁻¹]
B1 | 1.03 | 44.9 | 3.95e-06 | 3.83e+06
B2 | 1.45 | 23.8 | 7.46e-06 | 5.16e+06
B3 | 0.452 | 130 | 1.37e-06 | 3.03e+06
B4 | 4.06 | 19.8 | 8.97e-06 | 2.21e+06
B5 | 1.43 | 78.7 | 2.26e-06 | 1.58e+06
B6 | 1.46 | 41 | 4.33e-06 | 2.96e+06
B7 | 2.49 | 20.4 | 8.69e-06 | 3.5e+06
B8 | 5.41 | 22.2 | 7.98e-06 | 1.48e+06
B9 | 0.958 | 53 | 3.35e-06 | 3.49e+06
B10 | 1.47 | 32.5 | 5.46e-06 | 3.71e+06
B11 | 0.393 | 180 | 9.86e-07 | 2.51e+06
B12 | 1.75 | 38.4 | 4.63e-06 | 2.86e+06
B13 | 0.435 | 89.9 | 1.98e-06 | 4.54e+06
B14 | 1.5 | 38.8 | 4.58e-06 | 3.33e+06

molecular target: hErbB3.mmh (soluble monomeric human ErbB3 extracellular domain with C-terminal myc-myc-hexahistidine tag) (human, UniProt P21860 20-642); assay: SPR (Biacore), 25 C, mAb capture format
Experimental: as §1

Binder | Kd [pM] | T½ [h] | koff [s⁻¹] | kon [M⁻¹ s⁻¹]
B1 | 23.9 | 2.98 | 5.96e-05 | 2.49e+06
B2 | 27.8 | 1.72 | 0.000103 | 3.72e+06
B3 | 7.22 | 13 | 1.37e-05 | 1.89e+06
B4 | 69 | 2.25 | 7.89e-05 | 1.14e+06
B5 | 55.1 | 3.63 | 4.88e-05 | 886000
B6 | 41.8 | 2.18 | 8.13e-05 | 1.95e+06
B7 | 53.1 | 1.52 | 0.000118 | 2.21e+06
B8 | 106 | 1.8 | 9.88e-05 | 929000
B9 | 17.7 | 4.65 | 3.81e-05 | 2.16e+06
B10 | 20.9 | 3.55 | 5.01e-05 | 2.39e+06
B11 | 19.8 | 5.43 | 3.27e-05 | 1.66e+06
B12 | 53.1 | 1.82 | 9.73e-05 | 1.83e+06
B13 | 12.4 | 5.13 | 3.46e-05 | 2.79e+06
B14 | 43.8 | 1.63 | 0.000108 | 2.47e+06
